According to patent publication US20250092426, “CAS ENDONUCLEASES AND RELATED METHODS” (Flagship Pioneering Innovations VII, LLC, published 2025):

Target: T1, CasEnd-10 (synthetic construct)
T1 chain: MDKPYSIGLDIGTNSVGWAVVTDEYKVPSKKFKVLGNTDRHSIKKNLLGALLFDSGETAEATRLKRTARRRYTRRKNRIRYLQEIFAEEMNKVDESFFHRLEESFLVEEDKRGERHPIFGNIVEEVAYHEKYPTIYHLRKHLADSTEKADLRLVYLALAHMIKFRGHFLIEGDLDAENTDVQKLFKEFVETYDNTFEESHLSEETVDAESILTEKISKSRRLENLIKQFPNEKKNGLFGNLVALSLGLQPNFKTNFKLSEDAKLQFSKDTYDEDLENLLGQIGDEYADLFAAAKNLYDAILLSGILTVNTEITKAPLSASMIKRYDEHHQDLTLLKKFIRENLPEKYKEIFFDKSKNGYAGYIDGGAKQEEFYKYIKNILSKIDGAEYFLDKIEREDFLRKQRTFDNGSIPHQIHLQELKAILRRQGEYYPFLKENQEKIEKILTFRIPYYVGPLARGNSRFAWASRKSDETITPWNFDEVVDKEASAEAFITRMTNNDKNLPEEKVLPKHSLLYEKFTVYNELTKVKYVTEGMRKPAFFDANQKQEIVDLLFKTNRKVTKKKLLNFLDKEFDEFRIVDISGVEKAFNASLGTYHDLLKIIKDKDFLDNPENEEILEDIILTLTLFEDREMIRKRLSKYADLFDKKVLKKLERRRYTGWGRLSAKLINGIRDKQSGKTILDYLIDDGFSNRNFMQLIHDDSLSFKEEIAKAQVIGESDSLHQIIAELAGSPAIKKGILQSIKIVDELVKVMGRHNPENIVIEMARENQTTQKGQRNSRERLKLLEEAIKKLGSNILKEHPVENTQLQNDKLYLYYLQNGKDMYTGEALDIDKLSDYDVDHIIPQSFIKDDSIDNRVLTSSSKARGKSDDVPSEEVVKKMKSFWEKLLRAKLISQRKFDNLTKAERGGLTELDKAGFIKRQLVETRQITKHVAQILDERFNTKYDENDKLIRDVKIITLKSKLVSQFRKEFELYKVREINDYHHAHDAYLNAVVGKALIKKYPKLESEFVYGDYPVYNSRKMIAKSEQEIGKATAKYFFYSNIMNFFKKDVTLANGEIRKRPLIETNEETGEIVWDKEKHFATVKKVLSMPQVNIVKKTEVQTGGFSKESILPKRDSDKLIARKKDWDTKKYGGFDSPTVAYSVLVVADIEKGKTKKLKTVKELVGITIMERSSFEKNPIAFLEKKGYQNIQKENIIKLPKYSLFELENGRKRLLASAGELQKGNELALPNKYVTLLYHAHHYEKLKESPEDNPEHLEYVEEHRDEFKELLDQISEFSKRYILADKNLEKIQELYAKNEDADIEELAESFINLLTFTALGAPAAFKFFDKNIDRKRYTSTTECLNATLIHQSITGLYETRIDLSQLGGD
Assay: cell_activity; +++; K562, second nick guide SEQ 380; PAM not stated
Description: The ability of the candidate endonucleases, including endonucleases 1-38 (CasEnds 1-38) (set forth in Table 1 and SEQ ID NOS: 1-38, respectively), to mediate target nucleic acid editing in cells was assessed by amplicon sequencing of the endogenous hemoglobin subunit beta (eHBB) gene, wherein the percent of amplicons displaying the intended edit is measured. The editing system is comprised of a template RNA (designed to introduce the Single Nucleotide Polymorphism), a second nick guide RNA, and a fusion protein consisting of retroviral reverse transcriptase and the individual subject Cas endonuclease.
Briefly, 250 ng of plasmid DNA encoding the subject fusion protein (containing one of the subject CasEnds), 250 ng each of plasmid DNA encoding the template RNA and the second nick guide RNA were added to 15 μL Lonza SF buffer containing 250,000 K562 cells. Nucleofection was mediated utilizing program FF-120-DA on a Lonza nucleofector. The day of nucleofection was marked as day 0. At day 3, the cells were harvested and subjected to lysis buffer treatment overnight. Genomic DNA was extracted and used for targeted amplicon sequencing to evaluate the performance of each Cas endonucleases based on their percent edit efficiencies.

B1: HBB template RNA ; HBB protospacer (ssRNA ; dsDNA)
RNA: CAUGGUGCACCUGACUCCUGGUUUUAGAGCUAGAAAUAGCAAGUUAAAAUAAGGCUAGUCCGUUAUCAACUUGAAAAAGUGGCACCGAGUCGGUGCACGGCAGACUUCUCUGCCGGAGUCAGGUGC
DNA 1: CATGGTGCACCTGACTCCTG
DNA 2: CAGGAGTCAGGTGCACCATG
activity: ≥ 100 % of reference
